# In PMC7509637 (Advanced Science, 2020):
# Entries after “also recorded” stand apart in the source; their conditions may differ.
# B1: FapCS: FapC seeds obtained by sonication of mature FapC fibrils (P. aeruginosa) (protein)
# chain: GNEGGWHPPKPNPQSNNKGGATALVVDTQQNYNNKVSNFGTLNNASVSGSIKDASGNVGVNVAAGDNNQQANAAALASADASFVFGTATASTSVLQSGYGNTLNNYSNPNTASLSNSANNVSGNLGVNVAAGNFNQQKNDLAAAVSNGQYSTAGSAASQTSTGNTTVNSANYAYGGTYVSLKLNADGSYKGTSDQIGDVYLDTWEGQTHPGGSNTGHIDVDSQAQGAKDLNHDGGAFAFKEKGDVDLKGTVSGFIPAIVGFKTPVTNNASLSNSLQNVSGNVGVNIAAGGGNQQSNSLSIAAGCSSCPAGGESLGF
# Key:
# [1] = test system: adult zebrafish brain; test: Synaptophysin IHC in brain of adult zebrafish; assay type: in vivo, zebrafish (AB, Danio rerio); details: for synaptophysin-positive synapses/cells (in words): n = 3
# Experimental: Adult zebrafish (10 months) were employed for the study. Prior to microinjection, adult zebrafish were anesthetized by placing them in a beaker filled with ice‐chilled tricaine (0.01% in Holtfreter's buffer) for 20 s. The samples of Aβ alone and Aβ with FapCS or bacterial biofilm fragments were injected to the cerebroventricular space of adult fish with a 1 µL Hamilton glass syringe. The concentration of the Aβ peptide was 40 × 10^−6 M (in PBS, pH 7.4) while FapCS or biofilm fragments were included at a 10:1 ratio (Aβ:FapCS or biofilm fragments). The needle penetrated between left and right telencephalon for not more than 1 mm and injection volume was 1 µL. The syringe was washed with ethanol and PBS in between the injections. The injections were made under a stereomicroscope and fish were held in place with forceps. After microinjection, the fish was placed back in the water tank for recovery.
# The deposition of Aβ, depletion of synaptophysin positive cells and TUNEL assay were measured by IHC. The adult fish, at 4 d or 2 weeks postinjection with Aβ and Aβ with FapCS or biofilm fragments, were euthanized by placing in ice‐chilled tricaine (0.4% in Holtfreter's buffer) for 1 min. The head of the fish was separated at pectoral fin point with a sharp blade and fixed in paraformaldehyde as described in the “Animal husbandry and ethics statement” section. The fixed heads were dehydrated by dipping in gradual concentration of ethanol, i.e., 20%, 40%, 60%, 80%, and 100% with 10 min at each step. The heads were treated with 20% sucrose overnight, mounted with Tissue Trek OCT mounting medium at −20 °C. The heads were then sectioned into […] section with a cryostat. The sections were mounted on a gelatinized glass slide and immunostained with antibodies. The sections were dried, washed thrice in PBS (pH 7.4), and TritonX‐100 (0.05% in PBS) for 5 min each. […] The sections were imaged by a fluorescence microscope and fluorescence intensities were measured from the images with Fiji ImageJ analysis.
# [2] = biological target: T1, Aβ (Homo sapiens, UniProt P05067); test: ThT kinetic assay of Aβ fibrillization (seeding with FapC species, Aβ seeds, bLgS); assay type: biochemical; details: 37 °C, n = 3
# T1 construct: purchased Anaspec Inc
# Experimental: FapC seeds (FapCS) were produced by FapC fibrils of three different ages. The FapC monomers were produced as described^[ ^45 ^] and stored in 6 M GdmCl. Prior to fibrillization, the FapC monomers were purified via a PD10 desalting column. FapC monomers (1 mg mL^−1 or 40 × 10^−6 M) were incubated in deionized water at 37 °C for 1 week to produce mature fibrils and at 37 °C or 25 °C for 4 d to obtain young fibrils. Deionized water was used to make FapC fibrils as it is convenient to transfer the samples to other experimental conditions, i.e., buffered Aβ solution or PBS for in vivo microinjection. However, bacterial amyloids like FapC and curli can make amyloids over a range of conditions.^[ ^93 ^] FapCS were produced by sonicating an aqueous solution of FapC fibrils (10 × 10^−6 M) at 20 power of a probe sonicator (Sonics Vibracell: 750 watts and 20 kHz) for 2 min with 1 s on/off cycle. For in vitro cross‐seeding experiments, 50 × 10^−6 M of Aβ monomers were incubated with 5 × 10^−6 M of FapCS (10:1 molar ratio, Aβ:FapCS) at 37 °C. bLg amyloids were synthesized by heating of bLg monomers (80 °C, pH 2) of 10 mg mL^−1 solution for 24 h. Prior to the production of bLgS, the bLg amyloid solution was brought to pH 7 and then sonicated, similar to FapC, to generate bLgS.
# Aβ (Anaspec Inc., purity ≥ 95%) was dissolved in 100 µL of hexafluoro‐2‐propanol (HFIP) and incubated at room temperature for 3 h. The acquired aliquots of this solution were freeze dried and stored at −20 °C for further experimentation. […] For the ThT kinetic assay, a 100 µL of aqueous solution containing Aβ (50 × 10^−6 M), FapCS or bLgS (5 × 10^−6 M) and ThT dye (100 × 10^−6 M) was incubated (37 °C) in a 96‐well plate. The ThT fluorescence (excitation: 445 nm/ emission: 485 nm) was recorded at specified time intervals for 50 h. Kinetic parameters (rate constant k, half‐life t 1/2 and lag‐time) were calculated as described.^[ ^94 ^] Briefly, kinetic curves were fitted to a sigmoidal curve =y0+ymax−y0/1+e^−(t−t1/2)k , where y 0 and y max are initial and final ThT fluorescence values, allowing us to calculate lag time = t 1/2 − 2/k.
molecule,measurement,setting,value
amyloid beta [Aβ],synaptophysin-positive synapses/cells (in words),[1]; 2 weeks postinjection,neurodegeneration of synaptophysin positive cells; also recorded: degenerate synaptophysin‐positive synapses
same,synaptophysin-positive synapses/cells (in words),[1]; 4 d postinjection,synaptophysin positive neuronal cells
same,fibrillization rate constant (k),[2]; Aβ 50 × 10^−6 M alone or with FapCS 5 × 10^−6 M,0.7 h⁻¹
B1,synapse health (in words),"[1]; FapCS alone, 4 × 10^−6 M, Figure S13",Healthy synapses
same,effect on half-life t1/2 of Aβ (in words),"[2]; 5 × 10^−6 M with Aβ 50 × 10^−6 M, **, p < 0.005",significantly shortened
same,effect on rate constant k of Aβ (in words),"[2]; 5 × 10^−6 M with Aβ 50 × 10^−6 M, FapCS *, p < 0.05, FapC monomer and fibrils **, p < 0.005",significantly increased
same,lag time of Aβ (in words),"[2]; Aβ 50 × 10^−6 M with FapCS 5 × 10^−6 M, **, p < 0.005",significantly shortened
same,effect on Aβ fibrillization (ThT),"[2]; Aβ 50 × 10^−6 M, seeds/FapC species 5 × 10^−6 M, ThT fluorescence ex 445/em 485 nm",acceleration of Aβ fibrillization
